# Measurements: US20230381333A1, “PHARMACEUTICAL COMPOSITION COMPRISING GLUCAGON/GLP-1/GIP TRIPLE AGONIST OR LONG-ACTING CONJUGATE THEREOF FOR PREVENTING OR TREATING VASCULITIS” (HANMI PHARM CO., LTD., priority 2020, published 2023)
# Bridge positions count the residues as written; N and C are the ends. Square brackets hold non-standard residues; d marks the D form. Ends that are not written are not given here. Aib = CC(C)(N)C(=O)O
# Legend:
# Assay type in all cases: cell-based
# human GLP-1 receptor = biological target: T1, human GLP-1 receptor (Homo sapiens, UniProt P43220); test: In vitro cAMP activity in human GLP-1 receptor-expressing CHO cells (LANCE cAMP kit); conditions: long-acting conjugate; relative titer from cAMP EC50 compared to human GLP-1
# T1 construct: expressed in transfected cells; host or cells: Chinese hamster ovary (CHO)
# T1 sequence (P43220 24-463): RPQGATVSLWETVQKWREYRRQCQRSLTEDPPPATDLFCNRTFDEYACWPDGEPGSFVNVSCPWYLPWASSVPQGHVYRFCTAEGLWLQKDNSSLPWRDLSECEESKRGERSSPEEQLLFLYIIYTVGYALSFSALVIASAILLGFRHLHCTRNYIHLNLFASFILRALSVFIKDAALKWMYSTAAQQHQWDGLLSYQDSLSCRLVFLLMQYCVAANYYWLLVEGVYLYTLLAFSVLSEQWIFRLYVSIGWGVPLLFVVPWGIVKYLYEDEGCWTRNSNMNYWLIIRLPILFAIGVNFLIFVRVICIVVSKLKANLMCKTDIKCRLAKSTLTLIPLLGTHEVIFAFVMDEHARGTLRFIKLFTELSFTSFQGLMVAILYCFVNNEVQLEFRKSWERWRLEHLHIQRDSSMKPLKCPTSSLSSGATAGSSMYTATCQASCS
# Description: (§1) In order to measure the activity of the triple agonists and long-acting conjugates thereof prepared according to Examples 1 and 2, the in-vitro cell activity was measured using cell lines transformed with GLP-1 receptor, glucagon (GCG) receptor, and GIP receptor, respectively.
# (§2) The cell lines were transformed to express human GLP-1 receptor, human GCG receptor and human GIP receptor genes in Chinese hamster ovary (CHO), respectively, and are suitable for measuring the activities of GLP-1, GCG, and GIP. Therefore, the activity for each part was measured using each transformed cell line.
# (§3) To measure the GLP-1 activity of the triple agonists and long-acting conjugates prepared according to Examples 1 and 2, human GLP-1 was diluted from 50 nM to 0.000048 nM by 4-fold serial dilution, and the triple agonists and long-acting conjugates thereof prepared according to Examples 1 and 2 were diluted from 400 nM to 0.00038 nM by 4-fold serial dilution. The culture medium was removed from the cultured human GLP-1 receptor-expressing CHO cells, 5 μl of each of the serially diluted materials was added to the cells, and then 5 μl of buffer containing cAMP antibody was added to the cells, followed by 15 minutes of incubation at room temperature. Then, cells were lysed by adding 10 μl of detection mix containing cell lysis buffer, and reacted at room temperature for 90 minutes. The cell lysate after the reaction had been completed, was applied to the LANCE cAMP kit (PerkinElmer, USA) to calculate the EC50 value through the accumulated cAMP, and then compared with each other.
# human GCG receptor = biological target: T2, human GCG receptor (Homo sapiens, UniProt P47871); test: In vitro cAMP activity in human GCG receptor-expressing CHO cells (LANCE cAMP kit); conditions: for In vitro activity compared to native-type peptide (%) vs Glucagon: long-acting conjugate, relative titer from cAMP EC50 compared to human GCG; for activity on the glucagon receptor: in words
# T2 construct: expressed in transfected cells; host or cells: Chinese hamster ovary (CHO)
# T2 sequence (P47871 26-477): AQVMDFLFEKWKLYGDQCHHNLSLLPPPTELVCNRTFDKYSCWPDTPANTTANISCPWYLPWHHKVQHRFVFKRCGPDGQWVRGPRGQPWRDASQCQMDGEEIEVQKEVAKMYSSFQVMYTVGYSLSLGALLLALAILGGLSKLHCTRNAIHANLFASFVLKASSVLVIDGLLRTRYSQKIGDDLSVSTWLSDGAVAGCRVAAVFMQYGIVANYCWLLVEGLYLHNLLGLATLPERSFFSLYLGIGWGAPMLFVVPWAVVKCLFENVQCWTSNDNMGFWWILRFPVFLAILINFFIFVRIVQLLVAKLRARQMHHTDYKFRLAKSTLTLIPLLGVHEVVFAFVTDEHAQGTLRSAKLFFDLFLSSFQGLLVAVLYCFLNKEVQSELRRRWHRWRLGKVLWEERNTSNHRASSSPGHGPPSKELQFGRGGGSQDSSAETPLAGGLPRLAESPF
# Description: as §1, §2
# as §3, with “GCG” for “GLP-1”, “to” for “to 0.000048”
# human GIP receptor = biological target: T3, human GIP receptor (Homo sapiens, UniProt P48546); test: In vitro cAMP activity in human GIP receptor-expressing CHO cells (LANCE cAMP kit); conditions: long-acting conjugate; relative titer from cAMP EC50 compared to human GIP
# T3 construct: expressed in transfected cells; host or cells: Chinese hamster ovary (CHO)
# T3 sequence (P48546 22-466): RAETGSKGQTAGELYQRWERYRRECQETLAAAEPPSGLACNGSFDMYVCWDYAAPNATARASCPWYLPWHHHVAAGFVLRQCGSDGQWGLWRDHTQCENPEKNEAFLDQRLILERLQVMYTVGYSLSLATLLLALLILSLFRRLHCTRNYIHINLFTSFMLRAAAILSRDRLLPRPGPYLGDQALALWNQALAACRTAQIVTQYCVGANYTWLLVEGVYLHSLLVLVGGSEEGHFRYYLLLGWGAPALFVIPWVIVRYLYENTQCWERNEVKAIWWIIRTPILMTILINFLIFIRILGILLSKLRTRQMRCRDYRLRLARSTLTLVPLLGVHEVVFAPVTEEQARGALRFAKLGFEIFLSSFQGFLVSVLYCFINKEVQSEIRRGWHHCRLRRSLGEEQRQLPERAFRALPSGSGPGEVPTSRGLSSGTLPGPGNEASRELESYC
# Description: as §1, §2
# as §3, with “measure the GIP activity of” for “measure the GLP-1 activity of”, “long-acting conjugates thereof prepared according” for “long-acting conjugates prepared according”, “2, human GIP was diluted” for “2, human GLP-1 was diluted”, “nM to […] by” for “nM to 0.000048 nM by”, “cultured human GIP receptor-expressing CHO” for “cultured human GLP-1 receptor-expressing CHO”
In vitro activity compared to native-type peptide (%) vs GLP-1 (human GLP-1 receptor),In vitro activity compared to native-type peptide (%) vs Glucagon (human GCG receptor),In vitro activity compared to native-type peptide (%) vs GIP (human GIP receptor),activity on the glucagon receptor (human GCG receptor),Substance
2.1%,13.5%,0.6%,–,43 (Y[Aib]QGTFTSDYSKYLDEKRAKEFVQWLLDHHCSSGQPPPS; lactam 16-20) [compound 43]
–,–,–,very high activity,YXQGTFTSDYSKYLDEKRAKEFVQWLLDCHPSSGQPPPS (Y[Aib]QGTFTSDYSKYLDEKRAKEFVQWLLDCHPSSGQPPPS; lactam 16-20) [Sequence number 97]
–,–,–,very high activity,YXQGTFTSDYSKYLDECRAKEFVQWLLDHHPSSGQPPPS (Y[Aib]QGTFTSDYSKYLDECRAKEFVQWLLDHHPSSGQPPPS; lactam 16-20) [Sequence number 21]
–,–,–,very high activity,YXQGTFTSDYSKYLDEKRAKEFVQWLLDHHPSSGQPPPSC (Y[Aib]QGTFTSDYSKYLDEKRAKEFVQWLLDHHPSSGQPPPSC; lactam 16-20) [Sequence number 42]
0.1%,0.9%,0.5%,–,22 (Y[Aib]QGTFTSDYSKCLDEKRAKEFVQWLLDHHPSSGQPPPS; lactam 16-20) [compound 22]
0.1%,1.6%,0.2%,–,21 (Y[Aib]QGTFTSDYSKYLDECRAKEFVQWLLDHHPSSGQPPPS; lactam 16-20) [compound 21]
3.1%,23.1%,1.2%,–,42 (Y[Aib]QGTFTSDYSKYLDEKRAKEFVQWLLDHHPSSGQPPPSC; lactam 16-20) [compound 42]
15.4%,6.9%,0.7%,–,50 (H[Aib]QGTFTSDYSKYLDEKRAKEFVQWLLDHHPSSGQPPPSC; lactam 16-20) [compound 50]
–,–,–,very high activity,YXQGTFTSDYSKYLDEKRAKEFVQWLLDHHCSSGQPPPS (Y[Aib]QGTFTSDYSKYLDEKRAKEFVQWLLDHHCSSGQPPPS; lactam 16-20) [Sequence number 43]
–,–,–,very high activity,YXQGTFTSDYSKYLDECRAKDFVQWLLDHHPSSGQPPPS (Y[Aib]QGTFTSDYSKYLDECRAKDFVQWLLDHHPSSGQPPPS; lactam 16-20) [Sequence number 66]
–,–,–,very high activity,YXQGTFTSDYSKYLDEKRAKEFVQWLLDHCPSSGQPPPS (Y[Aib]QGTFTSDYSKYLDEKRAKEFVQWLLDHCPSSGQPPPS; lactam 16-20) [Sequence number 96]
0.3%,4.0%,0.3%,–,96 (Y[Aib]QGTFTSDYSKYLDEKRAKEFVQWLLDHCPSSGQPPPS; lactam 16-20) [compound 96]
–,–,–,very high activity,YXQGTFTSDYSKCLDEKRAKEFVQWLLDHHPSSGQPPPS (Y[Aib]QGTFTSDYSKCLDEKRAKEFVQWLLDHHPSSGQPPPS; lactam 16-20) [Sequence number 22]
6.7%,1.7%,6.6%,–,77 (Y[Aib]QGTFTSDYSKYLDEKAAKDFVQWLLDHHPSSGQPPPSC; lactam 16-20) [compound 77]
